Test results from patent US9533026B2, “Polypeptide compounds for inhibiting angiogenesis and tumor growth” (VasGene Therapeutics, Inc., priority 2004, dated 2017).
Entries after “also recorded” stand apart in the source; their conditions may differ.

Columns and labels:
[1] = system: EphB4; experiment: EphB4 expression in PC3 cells on EGFR / IGF-1R blockade (Western blot); type: cell-based, human; conditions: AG1478 1 nM 36 hours, MAB391 2 μg/ml overnight
Method: A) Western blot of PC3 cells treated with or without EGFR specific inhibitor AG1478 (1 nM) for 36 hours. […] The membrane was stripped and reprobed with β-actin, which was unaffected. B) Western Blot of triplicate samples of PC3 cells treated with or without IGFR-1 specific neutralizing antibody MAB391 (2 μg/ml; overnight). The membrane was sequentially probed with EphB4, IGFR-1 and β-actin antibodies.

[2] = system: EphB4; experiment: EphB4 expression in HNSCC cell lines on EGFR inhibition (Western blot); type: cell-based, human
Method: Western blot of total cell lysates sequentially probed with EphB4 monoclonal antibody, stripped and reprobed with β-actin monoclonal antibody as described for FIG. 39C. B) Effect of the specific EGFR inhibitor AG1478 on EphB4 expression: Western blot of crude cell lysates of SCC15 treated with 0-1000 nM AG 1478 for 24 h in media supplemented with 10% FCS (left) or with […] AG 1478 for 4, 8, 12 or 24 h (right). Shown are membranes sequentially probed for EphB4 and β-actin. C) Effect of inhibition of EGFR signaling on EphB4 expression in SCC cell lines: Cells maintained in growth media containing 10% FCS were treated for 24 hr with 1 μM AG 1478, after which crude cell lysates were analyzed by Western blots of cell lysates sequentially probed with for EGFR, EphB4, ephrin B2 and β-actin antibodies. Specific signal for EGFR was detected at 170 kD and ephrin B2 at 37 kD in addition to EphB4 and β-actin as described in FIG. 1C. β-actin serves as loading and transfer control.

[3] = target: T1, EphrinB2 (Homo sapiens, UniProt P52799); experiment: EphrinB2 (B2-AP) binding assay on affinity magnetic beads
T1 construct: protein fusion of Ephrin B2 ectodomain with placental alkaline phosphatase
Description: To test whether the B4-HSA fusion property retained the ability of the EphB4 extracellular domain to bind to EphrinB2, the ability of the purified B4-HSA fusion was compared to that of GCF2F, GCF2, GC, CF and B4-Fc fusion, which comprises the extracellular domain of B4 fused to hIgG1 Fc as described in Example 1. Biotinylated or His-tag protein samples were inoculated with the corresponding affinity magnetic beads and B2-AP for an hour at room temperature, before addition of PnPP. Results of binding assays are shown on FIG. 67.
Fractions 1, 2 and 3 of biotinylated and PEGylated sB4 from the SP column purification, corresponding to polypegylated, monopegylated and unpegylated biotinylated sB4, were tested for their ability to bind EphrinB2 using the standard assay. Results of this experiment are shown on FIG. 72.

[4] = In vivo stability in mice after intravenous injection; parameters: species or system mouse; conditions: for stability in vivo relative to sB4 / EphB4 ectodomain: mice
Method: The stability of the purified biotinylated sB4 and sB4-HSA were assayed in vivo. Each of the proteins were intravenously injected into the tail of mice in the amount of 0.5 nmoles per mouse. Blood from the eye of each mouse was taken in time frames of 15 min (0 days), 1, 2, 3 and 6 days. […] of obtained serum was used in binding assay with Ephrin-B2-Alkaline Phosphatase fusion protein and Streptavidin-coated magnetic beads as a solid phase. […] For example, one day after injection, the levels of sB4-HSA in the blood of the mice were 5-fold greater than those of sB4.
Fractions 1, 2 and 3 of biotinylated and PEGylated sB4 from the SP column purification, corresponding to polypegylated, monopegylated and unpegylated biotinylated sB4, were introduced by intravenous injection into mice in the amount of 0.5 nMoles/mouse. Blood from each mouse was taken in time frame of 10 min, 1, 2 and 3 days. […] of obtained serum was used in binding assay with Ephrin-B2-Alkaline Phosphatase fusion protein and Streptavidin-coated magnetic beads as a solid phase. Signals, obtained at 10 min were taken as 100%. The two mice for each protein were of a different strain.

T1 sequence (P52799 28-229 limits assumed): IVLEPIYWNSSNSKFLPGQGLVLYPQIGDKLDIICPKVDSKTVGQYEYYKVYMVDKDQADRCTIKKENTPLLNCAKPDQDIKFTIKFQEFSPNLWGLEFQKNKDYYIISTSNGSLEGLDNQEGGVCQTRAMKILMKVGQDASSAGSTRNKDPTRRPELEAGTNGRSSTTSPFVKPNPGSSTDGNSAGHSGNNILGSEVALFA

| Compound | EphB4 level [1] | total amount of EphB4 ([2]; SCC-9, -12, -13 and -71) | total amount of EphB4 ([2]; SCC-15 and SCC-25, 24 h, 1 µM) | binding activity towards EphrinB2 [3] | binding to EphrinB2 compared with the B4-Fc fusion [3] | stability in vivo relative to sB4 / EphB4 ectodomain [4] | levels in the blood relative to sB4 ([4]; one day after injection, i.v. 0.5 nmoles per mouse) [fold] |
| --- | --- | --- | --- | --- | --- | --- | --- |
| COc1cc2ncnc(Nc3cccc(Cl)c3)c2cc1OC [AG1478] | down-regulated; also recorded: Decreased EphB4 signal | no effect | marked loss | – | – | – | – |
| B4-HSA: EphB4 ectodomain fused to human serum albumin, mature form SEQ ID NO:19 | – | – | – | retain most of its binding activity | superior | superior stability | 5 |
| EphB4 ectodomain fusion to the C-terminus of HSA: EphB4 ectodomain fused to the C-terminus of HSA | – | – | – | retain the ability to bind | – | enhanced stability | – |
